Tested on: non-human primates (cynomolgus monkey)
Experiment: Example 22: NHP hematology: neutrophils, reticulocytes, HGB, HCT, RBC (Tables 40-44)
Format: in vivo
Protocol: LNP formulations, shown in Table 33 (above), were administered to non-human primates (NHP) (cynomolgus monkey) (n=2) as intravenous injection (IV). The NHP were administered a single modified mRNA IV dose of 0.5 mg/kg, 0.05 mg/kg or 0.005 mg/kg of G-CSF or EPO in a dose volume of 0.5 mL/kg. The NHPs were bled before dosing with the modified mRNA LNP formulations to determine protein expression in the serum and a baseline complete blood count. After administration with the G-CSF modified mRNA formulation the NHP were bled at 8, 24, 48 and 72 hours to determined protein expression. After administration with the EPO modified mRNA formulation the NHP were bled at 8, 24, 48, 72 hours and 7 days to determined protein expression.
Samples collected from the NHPs after they were administered with G-CSF or EPO modified mRNA formulations were analyzed by ELISA to determine protein expression. Neutrophil and reticulocyte count was also determined pre-dose, 24 hours, 3 days, 7 days, 14 days and 18 days after administration of the modified G-CSF or EPO formulation.

[1] = 0.005 mg/kg, 14/18 days, Female NHP
[2] = 0.005 mg/kg, 14/18 days, Male NHP
[3] = 0.005 mg/kg, 24 hours, Female NHP
[4] = 0.005 mg/kg, 24 hours, Male NHP
[5] = 0.005 mg/kg, 3 days, Female NHP
[6] = 0.005 mg/kg, 7 days, Female NHP
[7] = 0.005 mg/kg, Pre-dose, Female NHP
[8] = 0.005 mg/kg, Pre-dose, Male NHP
[9] = 0.05 mg/kg, 14/18 days, Female NHP
[10] = 0.05 mg/kg, 14/18 days, Male NHP
[11] = 0.05 mg/kg, 24 hours, Female NHP
[12] = 0.05 mg/kg, Pre-dose, Female NHP
[13] = 0.5 mg/kg, 14/18 days, Female NHP
[14] = 0.5 mg/kg, 14/18 days, Male NHP
[15] = 0.5 mg/kg, 24 hours, Female NHP
[16] = 0.5 mg/kg, Pre-dose, Female NHP

B1: G-CSF: modified mRNA encoding human G-CSF, SEQ ID NO: 4, Cap1, fully modified with 5-methylcytosine and pseudouridine; LNP-formulated in Examples 16-22 (nucleic acid)
chain: GGGAAAUAAGAGAGAAAAGAAGAGUAAGAAGAAAUAUAAGAGCCACCAUGGCCGGUCCCGCGACCCAAAGCCCCAUGAAACUUAUGGCCCUGCAGUUGCUGCUUUGGCACUCGGCCCUCUGGACAGUCCAAGAAGCGACUCCUCUCGGACCUGCCUCAUCGUUGCCGCAGUCAUUCCUUUUGAAGUGUCUGGAGCAGGUGCGAAAGAUUCAGGGCGAUGGAGCCGCACUCCAAGAGAAGCUCUGCGCGACAUACAAACUUUGCCAUCCCGAGGAGCUCGUACUGCUCGGGCACAGCUUGGGGAUUCCCUGGGCUCCUCUCUCGUCCUGUCCGUCGCAGGCUUUGCAGUUGGCAGGGUGCCUUUCCCAGCUCCACUCCGGUUUGUUCUUGUAUCAGGGACUGCUGCAAGCCCUUGAGGGAAUCUCGCCAGAAUUGGGCCCGACGCUGGACACGUUGCAGCUCGACGUGGCGGAUUUCGCAACAACCAUCUGGCAGCAGAUGGAGGAACUGGGGAUGGCACCCGCGCUGCAGCCCACGCAGGGGGCAAUGCCGGCCUUUGCGUCCGCGUUUCAGCGCAGGGCGGGUGGAGUCCUCGUAGCGAGCCACCUUCAAUCAUUUUUGGAAGUCUCGUACCGGGUGCUGAGACAUCUUGCGCAGCCGUGAAGCGCUGCCUUCUGCGGGGCUUGCCUUCUGGCCAUGCCCUUCUUCUCUCCCUUGCACCUGUACCUCUUGGUCUUUGAAUAAAGCCUGAGUAGGAAG
modifications: Cap1, 5-methylcytosine, pseudouridine
0.005 mg/kg IV, 14/18 days
  Female NHP HGB: 129 g/L
  Female NHP Neutrophils: 2.28 10^9/L
  Male NHP HGB: 118 g/L
  Male NHP Neutrophils: 4.31 10^9/L
0.005 mg/kg IV, 24 hours
  Female NHP HGB: 127 g/L
  Female NHP Neutrophils: 8.6 10^9/L
  Male NHP HGB: 117 g/L
  Male NHP Neutrophils: 16.44 10^9/L
0.005 mg/kg IV, 3 days
  Female NHP HGB: 127 g/L
  Female NHP Neutrophils: 1.78 10^9/L
  Male NHP HGB: 116 g/L
  Male NHP Neutrophils: 3.74 10^9/L
0.005 mg/kg IV, 7 days
  Female NHP HGB: 129 g/L
  Female NHP Neutrophils: 2.27 10^9/L
  Male NHP HGB: 116 g/L
  Male NHP Neutrophils: 7.28 10^9/L
0.005 mg/kg IV, Pre-dose
  Female NHP HGB: 129 g/L
  Female NHP Neutrophils: 2.54 10^9/L
  Male NHP HGB: 128 g/L
  Male NHP Neutrophils: 1.52 10^9/L
[1]
  HCT: 0.42 L/L
  RBC: 5.34 10^12/L
[2]
  HCT: 0.41 L/L
  RBC: 5.37 10^12/L
[3]
  HCT: 0.42 L/L
  RBC: 5.35 10^12/L
[4]
  HCT: 0.4 L/L
  RBC: 5.34 10^12/L
[5]
  HCT: 0.41 L/L
  RBC: 5.24 10^12/L
0.005 mg/kg, 3 days, Male NHP
  HCT: 0.4 L/L
  RBC: 5.32 10^12/L
[6]
  HCT: 0.42 L/L
  RBC: 5.34 10^12/L
0.005 mg/kg, 7 days, Male NHP
  HCT: 0.39 L/L
  RBC: 5.25 10^12/L
[7]
  HCT: 0.42 L/L
  RBC: 5.36 10^12/L
[8]
  HCT: 0.42 L/L
  RBC: 5.67 10^12/L
0.05 mg/kg IV, 14/18 days
  Female NHP HGB: 123 g/L
  Female NHP Neutrophils: 1.82 10^9/L
  Male NHP HGB: 134 g/L
  Male NHP Neutrophils: 3.59 10^9/L
0.05 mg/kg IV, 24 hours
  Female NHP HGB: 117 g/L
  Female NHP Neutrophils: 29.91 10^9/L
  Male NHP HGB: 122 g/L
  Male NHP Neutrophils: 19.92 10^9/L
0.05 mg/kg IV, 3 days
  Female NHP HGB: 115 g/L
  Female NHP Neutrophils: 10.77 10^9/L
  Male NHP HGB: 126 g/L
  Male NHP Neutrophils: 7.49 10^9/L
0.05 mg/kg IV, 7 days
  Female NHP HGB: 116 g/L
  Female NHP Neutrophils: 3.8 10^9/L
  Male NHP HGB: 126 g/L
  Male NHP Neutrophils: 4.13 10^9/L
0.05 mg/kg IV, Pre-dose
  Female NHP HGB: 129 g/L
  Female NHP Neutrophils: 3.05 10^9/L
  Male NHP HGB: 137 g/L
  Male NHP Neutrophils: 13.74 10^9/L
[9]
  HCT: 0.4 L/L
  RBC: 5.26 10^12/L
[10]
  HCT: 0.44 L/L
  RBC: 5.43 10^12/L
[11]
  HCT: 0.4 L/L
  RBC: 5.08 10^12/L
0.05 mg/kg, 24 hours, Male NHP
  HCT: 0.39 L/L
  RBC: 4.96 10^12/L
0.05 mg/kg, 3 days, Female NHP
  HCT: 0.39 L/L
  RBC: 5.04 10^12/L
0.05 mg/kg, 3 days, Male NHP
  HCT: 0.41 L/L
  RBC: 5.13 10^12/L
0.05 mg/kg, 7 days, Female NHP
  HCT: 0.4 L/L
  RBC: 5.05 10^12/L
0.05 mg/kg, 7 days, Male NHP
  HCT: 0.42 L/L
  RBC: 5.17 10^12/L
[12]
  HCT: 0.44 L/L
  RBC: 5.64 10^12/L
0.05 mg/kg, Pre-dose, Male NHP
  HCT: 0.44 L/L
  RBC: 5.68 10^12/L
0.5 mg/kg IV, 14/18 days
  Female NHP HGB: 113 g/L
  Female NHP Neutrophils: 1.98 10^9/L
  Male NHP HGB: 98 g/L
  Male NHP Neutrophils: 2.58 10^9/L
0.5 mg/kg IV, 24 hours
  Female NHP HGB: 112 g/L
  Female NHP Neutrophils: 13.96 10^9/L
  Male NHP HGB: 113 g/L
  Male NHP Neutrophils: 14.92 10^9/L
0.5 mg/kg IV, 3 days
  Female NHP HGB: 114 g/L
  Female NHP Neutrophils: 13.7 10^9/L
  Male NHP HGB: 118 g/L
  Male NHP Neutrophils: 9.76 10^9/L
0.5 mg/kg IV, 7 days
  Female NHP HGB: 116 g/L
  Female NHP Neutrophils: 3.81 10^9/L
  Male NHP HGB: 115 g/L
  Male NHP Neutrophils: 2.74 10^9/L
0.5 mg/kg IV, Pre-dose
  Female NHP HGB: 129 g/L
  Female NHP Neutrophils: 1.27 10^9/L
  Male NHP HGB: 133 g/L
  Male NHP Neutrophils: 1.53 10^9/L
[13]
  HCT: 0.37 L/L
  RBC: 4.92 10^12/L
[14]
  HCT: 0.34 L/L
  RBC: 4.21 10^12/L
[15]
  HCT: 0.38 L/L
  RBC: 4.96 10^12/L
0.5 mg/kg, 24 hours, Male NHP
  HCT: 0.37 L/L
  RBC: 4.66 10^12/L
0.5 mg/kg, 3 days, Female NHP
  HCT: 0.38 L/L
  RBC: 4.97 10^12/L
0.5 mg/kg, 3 days, Male NHP
  HCT: 0.39 L/L
  RBC: 4.91 10^12/L
0.5 mg/kg, 7 days, Female NHP
  HCT: 0.38 L/L
  RBC: 5.04 10^12/L
0.5 mg/kg, 7 days, Male NHP
  HCT: 0.39 L/L
  RBC: 4.8 10^12/L
[16]
  HCT: 0.43 L/L
  RBC: 5.57 10^12/L
0.5 mg/kg, Pre-dose, Male NHP
  HCT: 0.46 L/L
  RBC: 5.57 10^12/L
All dose groups
  neutrophils relative to pre-dose levels: increase in neutrophils

— US20190142971A1, “FORMULATION AND DELIVERY OF MODIFIED NUCLEOSIDE, NUCLEOTIDE, AND NUCLEIC ACID COMPOSITIONS” (ModernaTX, Inc., priority 2013, published 2019)
